Source: publication PMC5645793 (Journal of toxicology and environmental health. Part A, 2009)

Columns and labels:
[1] = biological target: T1, human lens ALDH1A1 (Homo sapiens, UniProt P00352); assay type: biochemical
T1 sequence (P00352 1-501): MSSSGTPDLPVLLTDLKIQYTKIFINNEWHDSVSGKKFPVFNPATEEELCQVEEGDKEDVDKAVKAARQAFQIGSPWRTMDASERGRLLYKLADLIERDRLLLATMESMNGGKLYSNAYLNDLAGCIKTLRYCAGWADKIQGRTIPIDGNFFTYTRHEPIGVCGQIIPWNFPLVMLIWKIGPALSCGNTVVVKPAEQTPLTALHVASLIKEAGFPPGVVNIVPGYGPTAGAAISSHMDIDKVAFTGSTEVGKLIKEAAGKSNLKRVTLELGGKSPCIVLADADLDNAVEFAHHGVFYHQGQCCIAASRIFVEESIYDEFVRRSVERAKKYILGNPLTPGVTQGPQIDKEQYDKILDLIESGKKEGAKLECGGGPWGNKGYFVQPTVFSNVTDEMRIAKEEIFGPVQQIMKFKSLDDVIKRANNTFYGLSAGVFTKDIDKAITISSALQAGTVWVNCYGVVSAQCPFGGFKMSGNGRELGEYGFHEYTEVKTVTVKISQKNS

[2] = biological target: T1, human lens ALDH1A1; assay type: biochemical; remark: listed apart in the source
[3] = substrate: CCCCCC(O)C=CC=O; test: purified protein; conditions: NAD+ probably both the substrates fit the active site well
[4] = substrate: CCC=O; test: purified protein; assay type: biochemical, Homo sapiens; conditions: NAD+
[5] = substrate: O=Cc1ccccc1; test: purified protein; assay type: biochemical, Homo sapiens; conditions: NAD+
[6] = substrate: O=CCC=O; test: purified protein; assay type: biochemical, Homo sapiens; conditions: NAD+ probably both the substrates fit the active site well
[7] = substrate: NC(=O)c1ccc[n+]([C@@H]2O[C@H](COP(=O)([O-])OP(=O)(O)OC[C@H]3O[C@@H](n4cnc5c(N)ncnc54)[C@H](O)[C@@H]3O)[C@@H](O)[C@H]2O)c1; test: purified protein; assay type: biochemical, Homo sapiens; conditions: may interfere with NO binding to catalytic site; varied: cofactor

CC(C)=CCCC(C)=CC=O [citral, 3,7-dimethyl-2,6-octadienal]
IC50 [1]: 55 µM

CC/C(=C(/CC)c1ccc(O)cc1)c1ccc(O)cc1 [diethylstilbestrol]
EC50 [2]: 11.3 µM

B1: human lens ALDH1A1 (Homo sapiens) (protein)
chain: MSSSGTPDLPVLLTDLKIQYTKIFINNEWHDSVSGKKFPVFNPATEEELCQVEEGDKEDVDKAVKAARQAFQIGSPWRTMDASERGRLLYKLADLIERDRLLLATMESMNGGKLYSNAYLNDLAGCIKTLRYCAGWADKIQGRTIPIDGNFFTYTRHEPIGVCGQIIPWNFPLVMLIWKIGPALSCGNTVVVKPAEQTPLTALHVASLIKEAGFPPGVVNIVPGYGPTAGAAISSHMDIDKVAFTGSTEVGKLIKEAAGKSNLKRVTLELGGKSPCIVLADADLDNAVEFAHHGVFYHQGQCCIAASRIFVEESIYDEFVRRSVERAKKYILGNPLTPGVTQGPQIDKEQYDKILDLIESGKKEGAKLECGGGPWGNKGYFVQPTVFSNVTDEMRIAKEEIFGPVQQIMKFKSLDDVIKRANNTFYGLSAGVFTKDIDKAITISSALQAGTVWVNCYGVVSAQCPFGGFKMSGNGRELGEYGFHEYTEVKTVTVKISQKNS
Km [3]: 4.8 ± 0.12 µM
Vmax [3]: 0.135 ± 0.0152 µmol/min/mg
Km [4]: 121.4 ± 6.7 µM
Vmax [4]: 0.445 µmol/min/mg
Km [5]: 143.2 ± 6.4 µM
Vmax [5]: 0.75 µmol/min/mg
Km [6]: 3.5 ± 0.6 µM
Vmax [6]: 0.382 µmol/min/mg
Km [7]: 59.4 ± 2.4 µM
Vmax [7]: 0.15 µmol/min/mg
